Results: patent publication US20160355590A1 (UNIVERSITY OF SOUTHERN CALIFORNIA, published 2016)

Tests used:
[1] = molecular target: human HLA-DR (allele not stated), on cells (human); test: Scatchard plot analysis, normal B cells against tumor cell line
[2] = molecular target: human HLA-DR (allele not stated), on cells (human); test: Scatchard plot analysis, avidity constant on tonsil lymphocytes
[3] = molecular target: human HLA-DR (allele not stated), on cells (human); test: Scatchard plot analysis, avidity constant on ARH-77 myeloma cells

| fold decrease in binding affinity on normal B cells against tumor cells [1] [fold] | Ka [2] [M⁻¹] | Ka [3] [M⁻¹] | Binder |
| --- | --- | --- | --- |
| 4 | 8.8e+07 | – | Lym-1 monoclonal antibody (antibody, V domains shown, Mouse (BALB/c) hybridoma monoclonal antibody raised against Raji Burkitt's lymphoma cell nuclei; detected with goat anti-mouse IgG) VH: QLKESGPGLVAPSQSLSITCTISGFSLTSYGVHWVRQPPGKGLEWLVVIWSDGSTTYNSALKSRLSISKDNSKSQVFLKMNSLQTDDTAIYYCASHYGSTLAFASWGHGTLVTVSA VL: DIQMTQSPASLSASVGETVTIICRASVNIYSYLAWYQQKQGKSPQLLVYNAKILAEGVPSRFSGSGSGTQFSLKINSLQPEDFGSYYCQHHYGTFTFGSGTKLEIK |
| 2 | 1.23e+08 | 2.33e+08 | Lym-2 monoclonal antibody (antibody, V domains shown, Mouse (BALB/c) hybridoma monoclonal antibody raised against CLL biopsy cell nuclei; detected with goat anti-mouse IgG) VH: EVQLEESGGGLVQPGGSMKLSCVASGFTFSNYWMNWVRQSPEKGLEWVAEIRFKSHNYATHFAESVKGRFTISRDDSKSSVYLQMNNLRAEDTGIYYCTRRIGNSDYDWWYFDVWGAGTSVTVSS VL: DIVMTQSHKFMSTSVGDRVSVTCKASQNVGNNVAWYQQKPGQSPKVLIYSASYRYSGVPDRFTGSGSGTDFTLTISNVQSEDLAEYFCQQYNTYPFTFGSGTKLEIK |
